From publication doi:10.1101/2024.08.29.610253

Columns and labels:
[1] = target: interface II mutations (CC2N and C2B variants, ITC); test: ITC
[2] = target: liprin-α2_CC2N E380R (human) (UniProt O75334); test: ITC
RIM1_C2B (rat) = test: SEC-MALS

Chain of liprin-α2_CC2N E380R (human) (O75334 300-404 E380R): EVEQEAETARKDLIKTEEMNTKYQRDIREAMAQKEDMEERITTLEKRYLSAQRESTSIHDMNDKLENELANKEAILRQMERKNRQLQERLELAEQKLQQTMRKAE

fold decrease in binding affinity [1]: 5 fold
fold decrease in binding affinity [2]: 2 fold
stoichiometry N (RIM1_C2B (rat)): 2
Substance: RIM1_C2B (domain or fragment)
